Measurements published in paper doi:10.1101/868190 (bioRxiv, 2019).
Ends that are not written are not given here.

T1: His-hPPARγ (231-505) ligand-binding domain, wild-type (human, UniProt P37231-1 231-505)
T1 sequence: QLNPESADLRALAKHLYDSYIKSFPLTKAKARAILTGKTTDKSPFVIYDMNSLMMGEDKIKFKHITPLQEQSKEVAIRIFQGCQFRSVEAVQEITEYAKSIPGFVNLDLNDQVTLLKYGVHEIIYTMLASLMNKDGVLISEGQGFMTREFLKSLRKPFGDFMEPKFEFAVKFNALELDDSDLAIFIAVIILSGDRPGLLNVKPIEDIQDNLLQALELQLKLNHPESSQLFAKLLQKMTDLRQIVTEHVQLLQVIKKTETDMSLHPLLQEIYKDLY


Molecular target: T1, His-hPPARγ (231-505) ligand-binding …
Assay: MST

binding result	Binder
binds	NLGLEDIIRKALMG (also: fluorescent label, dye and position not given here) [fluorescent NCoR1 peptide (2260-NLGLEDIIRKALMG-2273)]
binds	EAEEPSLLKKLLLAPA (also: fluorescent label, dye and position not given here) [fluorescent PGC1α peptide (137-EAEEPSLLKKLLLAPA-152)]
